Assay: soluble on expression in E. coli; label from the status in PepcDB or PDB records
For “MGHHHHHHSHMINVDPPTGNYPATGGNSTHNITSESDSRLAFKVKSSNNEHYRVRPVYGFVDAKGKSKLDINRLPGPPKEDKIVIQYAEVPAEETDPMAPFKAGAQQGEIIVKLIAA”, the “soluble on expression in E. coli” value was “soluble”.
For “MGSDKIHHHHHHMEKDIFVELNFLIMIIDDALPKFDLPVDFVTDDSITGDILNQYGRFPCHIKAGVFVLCTRGTVRATINLSEYTITHNDFVTVLPGSFIQIHEVSSDTRVCFAGFSSEFISRVSYVETYLDFLPMILDNPIMALQEEVAQLYRNAFSLLIRAYSLPNTLDNKEILMSIFTIFFQGVGELYKRCKPTTNEPIKREHELYRQFIQLLMTHYTQEHEVSFYAKKCGVTPAHFSGAIRKASGHSPLAIITGIIIMNAKAQLKSTRLPVKEIAFSLGFNNLSFFNKYFRKHVKMTPQEYREC”, the “soluble on expression in E. coli” value was “not soluble”.
For “MNRSRDKVRCALNHQNAGSIPVDFGSTAVTGIHCRIVEALRNYYGLAPRPVKIVDAFQMLGEIDAELAEKIGVDCIGIGGPKDIFDLDTTRMHEQTTPWGQRVLVPEAMDLTPDMRGDVYVYAGGDQNYPPSAVMPKGCYFINAIERQQPIEEDRLDPEDNVEEFGLLTENDLAYYCAEADKAYQTGRAVVASFGGTALGDVAFVPGMGLKQPKGIRSVVEWYMSTAMRQDYLHQVFEKEIDIAIANYEKLWAALGDKIDVVLTCGTDFGSQESQFCSIDTFRELWLPHYRRMNDWIHQHTTWKIFKHSCGAIIPILPGLIEAGFDIINPVQINAKDMDSRRLKEEFGSQLTFWGGGVDTQKILPFGTPDEIRRHVMGQCEILGRDGGFVFNAVHNVQANVPVDNVVAMFDALKDISLEHHHHHH”, the “soluble on expression in E. coli” value was “not soluble”.
For “MDERRFFRDVCAEWMEQYRLTVRESTLEKTQRIINIHVLPAFGDMVINNITPNVCQKVVNKWFLEAKSYKKWLNYASMIFDYALRAEYVGRNPCTLVTMPRVQEQAGEKLEHHHHHH”, the “soluble on expression in E. coli” value was “not soluble”.
For “MKLNIRAQTAQNQHNNSPIVLVHGLFGSLDNLGVLARDLVNDHNIIQVDVRNHGLSPREPVMNYPAMAQDLVDTLDALQIDKATFIGHSMGGKAVMALTALAPDRIDKLVAIDIAPVDYHVRRHDEIFAAINAVSESDAQTRQQAAAIMRQHLNEEGVIQFLLKSFVDGEWRFNVPVLWDQYPHIVGWEKIPAWDHPALFIPGGNSPYVSEQYRDDLLAQFPQARAHVIAGAGHWVHAEKPDAVLRAIRRYLNDH”, the “soluble on expression in E. coli” value was “soluble”.
In the case of “MAHHHHHHMKENYMIRHLFKKYGLKCYNSMSKGLLSNIRNGNSIVLYEKNVNKNLMNLLYKKHYNTYKNRVFNSAMYNNTPSNYMNNPENNNMNHLQNNSNYKYENPNNYYQPKYNNNLNNETNENNTTYQYFSIFGSTAMCLIKPIFPDYITNKNKVTIYGKGGFQFVFMRKQSNSNKYDKNNKMNIFIKINSLSNVLSLNDVEKLKNPIIIKGSNNNYLTIDKHKEKKDHIVIKYKYQPSNSPENNFNDMNNMDTDINENMIINDVNDEKRNNFEELHVSFSFSEFLLFQKAANLLLPQLIGWAKQY”, the “soluble on expression in E. coli” value is reported as “not soluble”.
With “MGSDKIHHHHHHMKYTFNEEKAFDIVAIGRACIDLNAVEYNRPMEETMTFSKYVGGSPANIAIGSAKLGLKAGFIGKIPDDQHGRFIESYMRKTGVDTTQMIVDQDGHKAGLAFTEILSPEECSILMYRDDVADLYLEPSEVSEDYIANAKMLLVSGTALAKSPSREAVLKAVQYAKKHQVKVVFELDYRPYTWQSSDETAVYYSLVAEQSDIVIGTRDEFDVMENRTGGSNEESVNHLFGHSADLVVIKHGVEGSYAYSKSGEVFRAQAYKTKVLKTFGAGDSYASAFIYGLVSGKDIETALKYGSASASIVVSKHSSSEAMPTAEEIEQLIEAQS” the “soluble on expression in E. coli” value was “not soluble”.
With “MNCYNKFAHIYDKLIRADVDYKKWSDFIIEKCVENNLVFDDYLDLACGTGNLTENLCPKFKNTWAVDLSQEMLSEAENKFRSQGLKPRLACQDISNLNINRKFDLITCCLDSTNYIIDSDDLKKYFKAVSNHLKEGGVFIFDINSYYKLSQVLGNNDFNYDDDEVFYYWENQFEDDLVSMYISFFVRDGEFYKRFDEEHEERAYKEEDIEKYLKHGQLNILDKVDCYSNKKVEKFTERITYLVKLGGKSNGR” the “soluble on expression in E. coli” value was “soluble”.
In the case of “MSLSSARADRLRSHQTRVIGLILTDIANPFYTEIAAGTIDAARARGYEVFLAHTQEDPQTLRSIVDTMIARQVDGVVITVLHPDDGEVIRSLRSARIPLVQLSRRIQRVDADFVGIDDRAAASEMMEHVVTHGYQDIVTVVGPRTSSASAAREEGFIRTAEAHGIRTVSSQRISTYLSERGGYEAVEQVLARKSLPRVIVCGSDVIALGAISALRERSLNVPDDVAVTGFDGLYPGPLVELTTINQPRREMAEQSIELLTRRIEGAGGSYQSVLRAHQLRIGTTCGCPRMRPHLAAEGHHHHHH”, the “soluble on expression in E. coli” value is reported as “not soluble”.
For “MGSDKIHHHHHHMSSWEQRSHYLIEVAQRSLIGHKTFDLCRSHLVAASQISKGTIYNHFTTEADLVVAVACAEYEEWLAAAKRDMQRYPDPLTRFLYHHCYRLHQMLSQQRYVIERVMPNQALLLQATDSYRQRFEKISTEYNHWNRLTISEIGDIPGFNRAELVKDYLRGAMINSDDANRQADDVQLYCQFSYALSQLMGHSDKRIPTKPAFVHWLSHLPSTSAISAV”, the “soluble on expression in E. coli” value was “not soluble”.
With “MGSDKIHHHHHHMNWMDQPDLYSRYKIFLEILQSKEHISLFDPRLKRYTDILIDLEKPFTTWSTPNHIILVHKTLCLRHFPNKYESSAKRPVLILPPQAGHHSNLADYSPAQSLVRVFHRYGYDVYVTQWLSATTEYKDLGIEDYIRLTDEAVEEVRKRTGVYKIHLVGQCQGGWQASIYTSLFPDKISTLVSAAAPIDVNAKPSPIVEYAQKLSIDVFRFMVNSGGGVMPGKFILQGFKSMQPEEHYVRKYFRLWQMIKEGDEDGVKRFIHFENWYQYTQNLPGRFYLEIVKNIFKENNLTKPGSFQLDGRPVDLRNISCPVIIMAGKKDHITPPEQAFALKNYISTPAADVIEILTEGGHIGTLMGTESLREDWTAVNEVLKLAI” the “soluble on expression in E. coli” value was “not soluble”.
With “MHRGITVQTSDLDDGVTGVVGKVYIEASPKHVWAAITDYNNHKSFVPKLIDSGLISDNGREQVMFERGKTGIFLFRKTVYIKLSLQGEYPKRLDFHQIEGDFKVYEGDWLIERASDGKGSILTFRAKIKPDFFAPAMFVRKVQQNDLPLEHHHHHH” the “soluble on expression in E. coli” value was “soluble”.

— the DeepSol protein solubility set
